Data reported in PMC3669356.

Key:
[1] = molecular target: Schistosoma japonicum GST (GST-Sj), purified recombinant (Schistosoma japonicum) [GST: P08515]; assay: SPR
[2] = molecular target: rat GSTM1, purified recombinant (rat); assay: SPR; BIAcore; GSTM1 or GSTP1 immobilised by amine coupling on CM5 chips; AMPK 221WT injected (10 nM, or a concentration series) at 30 µl/min; 10 mM HEPES pH 7.4, 100 mM NaCl, 50 μM EDTA, 0.005% Surfactant P20; Langmuir 1:1 fit

Substance	equilibrium response [1] [RU]	Kd [2] [nM]	koff [2] [s⁻¹]	kon [2] [M⁻¹ s⁻¹]
AMPK α2T172Dβ2γ1 mutant (221TD) (from UniProt Q09137 1-552; Q9QZH4 1-271; P80385 1-330) (complex)	121	–	–	–
AMPK α2β2γ1 (221WT) (from UniProt Q09137 1-552; Q9QZH4 1-271; P80385 1-330) (complex)	203	5	0.0016	310000
